Data: patent US20220162341A1 (published 2022)
One block for each binder: values may come before it.

How the values were obtained:
[1] = target: T1, ASPH (aspartyl (asparaginyl) β-hydroxylase) (Homo sapiens (Human)) (UniProt Q12797); assay: SPR (SensiQ Pioneer), antibody captured via Protein G, ASPH as analyte
T1 sequence: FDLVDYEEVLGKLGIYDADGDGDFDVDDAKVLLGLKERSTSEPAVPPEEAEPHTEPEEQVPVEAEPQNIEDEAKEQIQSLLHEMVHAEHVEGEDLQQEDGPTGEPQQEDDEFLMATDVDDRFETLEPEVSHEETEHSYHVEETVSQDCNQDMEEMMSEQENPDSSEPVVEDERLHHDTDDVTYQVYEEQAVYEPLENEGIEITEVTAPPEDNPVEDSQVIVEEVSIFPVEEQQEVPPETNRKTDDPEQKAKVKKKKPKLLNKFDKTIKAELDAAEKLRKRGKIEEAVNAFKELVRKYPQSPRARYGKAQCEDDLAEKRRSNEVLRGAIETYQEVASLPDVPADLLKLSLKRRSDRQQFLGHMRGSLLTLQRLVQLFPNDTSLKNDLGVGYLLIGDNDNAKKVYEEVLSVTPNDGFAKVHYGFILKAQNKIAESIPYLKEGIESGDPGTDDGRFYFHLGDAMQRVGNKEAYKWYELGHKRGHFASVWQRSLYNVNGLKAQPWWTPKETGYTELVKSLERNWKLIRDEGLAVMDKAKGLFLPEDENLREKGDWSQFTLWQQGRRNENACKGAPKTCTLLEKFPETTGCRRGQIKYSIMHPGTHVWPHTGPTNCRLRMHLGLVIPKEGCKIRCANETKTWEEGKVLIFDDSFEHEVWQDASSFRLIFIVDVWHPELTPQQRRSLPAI

[2] = target: T2, ASPH (aspartyl (asparaginyl) β-hydroxylase) (Homo sapiens (Human), UniProt Q12797 75-758, limits assumed); assay: as above
T2 construct: The antibodies were raised against a peptide of human ASPH; also called the ASPH protein
T2 sequence: T1 sequence

- Kd [1]: 144 nM
- koff [1]: 0.00243 s⁻¹
- kon [1]: 16800 M⁻¹ s⁻¹
B1: 5H4/5K3 (antibody, V domains shown)
VH: QSLEESGGDLVKPGASLTLTCKASGFDFSSNAMCWVRQAPGKGPEWIACIDNGDGSTDYATWAKGRFTISKTSSTTVTLQMTSLTAADTATYFCTRNFNLWGQGTLVTVSS
VL: AQVLTQTASSVSAAVGGTVTISCQSSQSVYDNNRLAWFQQKPGQPPKLLIYETSKLASGVPLRFKGSGSGTQFTLTISDLECDDAATYYCLGSYSGYIYTFGGGTEVVVKG

- Kd [2]: 118 nM
- kon [2]: 20400 M⁻¹ s⁻¹
B2: 5H1/5K1 (antibody, V domains shown)
VH: B1 VH
VL: AQVLTQTASSVSAAVGGTVTISCQSSQSVYDNNRLAWFQQKPGQPPKLLIYETSKLASGVPLRFKGSGSGTQFTLTISDLECDDAATYYCLGSYSGYIYTFGGGTEVVVK
